Target: β-tubulin, endogenous in HeLa cells (human (endogenous in HeLa)) (UniProt P07437)
Experiment: native gel or EMSA; soluble native extracts of HeLa cells treated with 5 uM colchicine for 60 min (30 ug) on 6% non-denaturing PAGE, western blot with anti-TBCA; level of the complex relative to control cells (100%)

Chain of UniProt P07437 (P07437 whole entry): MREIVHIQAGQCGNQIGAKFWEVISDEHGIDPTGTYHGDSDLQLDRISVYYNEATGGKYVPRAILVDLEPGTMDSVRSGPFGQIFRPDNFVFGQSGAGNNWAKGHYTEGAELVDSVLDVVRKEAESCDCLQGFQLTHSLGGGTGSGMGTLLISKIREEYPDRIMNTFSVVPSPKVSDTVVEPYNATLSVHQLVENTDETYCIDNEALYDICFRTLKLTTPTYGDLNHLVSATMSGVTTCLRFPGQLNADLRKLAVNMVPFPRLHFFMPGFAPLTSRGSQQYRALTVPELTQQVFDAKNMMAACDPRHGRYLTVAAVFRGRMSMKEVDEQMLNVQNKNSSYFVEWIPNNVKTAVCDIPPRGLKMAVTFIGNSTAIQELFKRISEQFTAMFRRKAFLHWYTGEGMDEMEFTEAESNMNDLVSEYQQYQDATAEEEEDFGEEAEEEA

level of the TBCA/β-tubulin complex, percent of control cells: 18%
B1: tubulin cofactor A (TBCA), endogenous in HeLa cells (natural protein)
chain: MADPRVRQIKIKTGVVKRLVKEKVMYEKEAKQQEEKIEKMRAEDGENYDIKKQAEILQESRMMIPDCQRRLEAAYLDLQRILENEKDLEEAEEYKEARLVLDSVKLEA

Source: publication PMC8100514
